Reference: patent US20130196320A1, “METHOD FOR IMPROVING CLEAVAGE OF DNA BY ENDONUCLEASE SENSITIVE TO METHYLATION” (CELLECTIS, priority 2010, published 2013)
Values joined by “and” are separate entries in the source; they are usually repeats but may differ in a detail not shown here. Identical values can stand only once.

B1: I-CreI: wild-type I-CreI meganuclease (… homing endonuclease), SEQ ID NO: 1, recombinant Cterm His-tag (protein, listed as Chlamydomonas reinhardtii)
chain: MNTKYNKEFLLYLAGFVDGDGSIIAQIKPNQSYKFKHQLSLTFQVTQKTQRRWFLDKLVDEIGVGYVRDRGSVSDYILSEIKPLHNFLTQLQPFLKLKQKQANLVLKIIEQLPSAKESPDKFLEVCTWVDQIAALNDSKTRKTTSETVRAVLDSLSEKKKSSP
modifications: C-terminal His-tag

How the values were obtained:
[1] = system: RAG target in human RAG1 gene, 293H cells; test: Meganuclease-induced mutagenesis assay at RAG recognition site; assay type: cell-based; details: Empty vector, 1 μM 5-aza-2′-deoxycytidine, RAG locus
Protocol: The human 293H cells (ATCC) were plated at a density of 1.2×10^6 cells per 10 cm dish in complete medium (DMEM supplemented with 2 mM L-glutamine, penicillin (100 IU/ml), streptomycin (100 μg/ml), amphotericin B (Fongizone: 0.25 μg/ml, Invitrogen-Life Science) and 10% FBS). The cells were pre-treated with 5-aza-deoxycytidine at 0.2 μM or 1 μM, 48 hours before transfection and the treatment was maintained 48 hours post-transfection. The medium was changed every day. The cells were transfected with 3 μg of DNA plasmids encoding meganuclease for RAG or 2.5 μg of each monomer CAPNS1 using Lipofectamine 2000 transfection reagent (Invitrogen) according to the manufacturer's protocol.
The efficiency of the meganuclease to promote mutagenesis at its endogenous recognition site was evaluated by sequencing the DNA surrounding the meganuclease cleavage site. Two days post-transfection, genomic DNA was extracted. 200 ng of genomic DNA were used to amplify (PCR amplification) the endogenous locus surrounding the meganuclease cleavage site. PCR amplification is performed to obtain a fragment flanked by specific adaptor sequences [adaptor A: 5′-[…]-NNNN-3′(SEQ ID NO: 46) and adaptor B, 5′-[…]-3′ (SEQ ID NO: 47)] provided by the company offering sequencing service (GATC Biotech AG, Germany) on the 454 sequencing system (454 Life Sciences). The primers sequences used for PCR amplification were:
RAG_F1: 5′-[…]-NNNN-[…] (SEQ ID NO: 57) and
RAG_R1: 5′-[…]-[…]-3′ (SEQ ID NO: 58) and CAPNS1_J3: 5′-[…]-NNNN-[…] (SEQ ID NO: 59) and CAPNS1_R3: 5′-[…]-[…]-3′ (SEQ ID NO: 60). Sequences specific to the locus are underlined. The sequence NNNN in primer F1 is a Barcode sequence (Tag) needed to link the sequence with a PCR product. The percentage of PCR fragments carrying insertion or deletion at the meganuclease cleavage site is related to the mutagenesis induced by the meganuclease through NHEJ pathway in a cell population, and therefore correlates with the meganuclease activity at its endogenous recognition site. 5000 to 10000 sequences were analyzed per conditions.

C1234 DNA target = test: In vitro single turn over cleavage assay with C1234 duplexes; assay type: biochemical
Protocol: FIG. 5: In vitro cleavage of unmethylated or methylated C1234 by I-Cre I wild type. A constant amount of C 1234 duplex (50 nM) was incubated with an excess of I-Cre I (1.5 μM, final concentration) in the reaction buffer (10 mM Tris-HCl, 150 mM NaCl, pH8) at 37° C. Cleavage reaction was triggered by the addition of MgCl2 and then stopped after different time lengths by the addition of the stop buffer. This was followed by one hour of incubation at 37° C. to digest I-Cre I and release free DNA molecules. Cleaved and uncleaved DNA products were separated by PAGE using a TGX Any kD precast gel (Bio-Rad), stained with SYBR Green and then quantified using Quantity One software (Bio-Rad). Disappearance of substrate (uncleaved DNA) is plotted as a function of time.
To investigate the influence of C1234 methylation on the nuclease activity of I-Cre I, in vitro single turn over cleavage assays were performed with either unmethylated or methylated C1234 duplexes (unmethylated C1234 composed of SEQ ID NO: 31+SEQ ID NO: 32, C1234_Me full composed of SEQ ID NO: 35+SEQ ID NO: 38, C1234_Me-6a/-5b composed of SEQ ID NO: 33+SEQ ID NO: 36, C1234_Me-3a/-2b composed of SEQ ID NO: 34+SEQ ID NO: 37, C1234_Me-3a composed of SEQ ID NO: 34+SEQ ID NO: 32, C1234_Me-2b composed of SEQ ID NO: 31+SEQ ID NO: 37, respectively). A constant amount of C1234 duplex (50 nM) was incubated with an excess of I-Cre I (1.5 μM, final concentration) in the reaction buffer (10 mM Tris-HCl, 150 mM NaCl, pH8) at 37° C. Cleavage reaction was triggered by the addition of MgCl2 and then stopped after different time lengths by the addition of the stop buffer (45% glycerol, 95 mM EDTA, 1.5% (w/v) SDS, 1.5 mg/mL proteinase K and 0.048% (w/v) bromophenol blue, final concentrations). This was followed by one hour incubation at 37° C. to digest I-Cre I and release free DNA molecules. Cleaved and uncleaved DNA products were separated by PAGE using a TGX Any kD precast gel (Bio-Rad), stained with SYBR Green and then quantified using Quantity One software (Bio-Rad).
To test the influence of C 1234 methylation on I-Cre I cleavage activity, single turn over cleavage assays in vitro were performed with unmethylated (composed of SEQ ID NO: 31+SEQ ID NO: 32) or with different methylated forms of C1234 (FIG. 5). In these assays C1234 was premixed to a large excess of recombinant meganucleases before addition of MgCl2. After different time lengths, the reaction was quenched by addition of a stop buffer, the remaining substrate was separated from the reaction product and then quantified. In these conditions, substrate disappearance was a first order process. The rate constant of this process corresponded to the turn over number (kcat) of the meganuclease. Turn over number measurement was not affected by affinity differences between methylated and unmethylated C1234 for I-Cre I because in our experimental conditions, the totality of C1234 was bound to the meganuclease at the beginning of reaction. In addition, this measurement was not affected by the rate limiting step of product release (Wang J, Kim H H, Yuan X, Herrin D L: Purification, biochemical characterization and protein-DNA interactions of the I-CreI endonuclease produced in Escherichia coli. Nucleic Acids Res 1997, 25:3767-3776) because the complex I-Cre I:cleaved C1234 product was artificially disrupted by the proteinase K and SDS present in the stop buffer.

Molecule	mutagenesis, PCR fragments carrying a mutation [1] [%]	mutagenesis, PCR fragments carrying a mutation ([1]; listed as 5-aza-2′-deoxycytidine) [%]	kcat (C1234 DNA target; C1234_Me full (fully methylated)) [s⁻¹]	kcat (C1234 DNA target; C1234_Me-2b) [s⁻¹]	kcat (C1234 DNA target; C1234_Me-3a) [s⁻¹]	kcat (C1234 DNA target; C1234_Me-3a/-2b) [s⁻¹]	kcat (C1234 DNA target; C1234_Me-6a/-5b) [s⁻¹]	effect of methylation on catalytic activity (C1234 DNA target; C1234 methylated in position −2b)	effect of methylation on catalytic activity (C1234 DNA target; C1234 methylated in position −3a)	effect of methylation on catalytic activity (C1234 DNA target; C1234 methylated in positions −3a and −2b (within the cleavage region))	effect of methylation on catalytic activity (C1234 DNA target; C1234 methylated in positions −6a/−5b (outside the cleavage region))	kcat (C1234 DNA target; unmethylated C1234)
Nc1ncn([C@H]2C[C@H](O)[C@@H](CO)O2)c(=O)n1 [5-aza-2′deoxycytidine, reference compound]	0.04	0.04 ± 0.05	–	–	–	–	–	–	–	–	–	–
B1	–	–	<1.7e-06	<1.7e-06	0.00095 ± 0.0001	3.3e-06 ± 5e-05	0.00033 ± 0.00012	almost totally inhibited it	didn't affect 1-Cre I catalytic activity	strongly affected the catalytic activity of I-Cre I	did not affect I-Cre I catalytic activity	0.000417 s⁻¹ and 0.000417 ± 3.3e-05 s⁻¹
